# Measured values: US20160376555A1, “NOVEL METHODS TO REGENERATE HUMAN LIMBAL STEM CELLS” (The Regents of the University of California, priority 2012, published 2016)
# B1: Dkk2: Functional recombinant Dkk2 protein, a Wnt inhibitor (protein, UniProt Q9UBU2 34-259, looked up)
# Dickkopf-related protein 2: KLNSIKSSLGGETPGQAANRSAGMYQGLAFGGSKKGKNLGQAYPCSSDKECEVGRYCHSPHQGSSACMVCRRKKKRCHRDGMCCPSTRCNNGICIPVTESILTPHIPALDGTRHRDRNHGHYSNHDLGWQNLGRPHTKMSHIKGHEGDPCLRSSDCIEGFCCARHFWTKICKPVLHQGEVCTKQRKKGSHGLEIFQRCDCAKGLSCKVWKDATYSSKARLHVCQKI
# What was measured:
# [1] = tested on: Wnt3a activities; conditions: functional recombinant Dkk2 protein; Wnt reporter gene assay; read-out: IC50, inhibition of Wnt3a activities; cited from earlier work
# [2] = tested on: Wnt3a activities; test: Wnt reporter gene assay; type: cell-based; conditions: Dkk2 at 125 nM
# From the text: As discussed above, Wnt/β-catenin and Notch pathways play pivotal roles in the fate determination decision between epidermal and corneal epithelial lineage in mice. In particular, Dkk2 is necessary for corneal development and activation of Notch1 is required to maintain the corneal lineage. Dkk2 alone or in combination with Notch1 activation may facilitate and increase the efficiency of the reprogramming process in humans. Functional recombinant Dkk2 protein can be provided by Dr. Jie Zheng (St. Jude Children's Research Hospital) (see, e.g. Lin et al., Proc Natl Acad Sci USA 2010; 107:4194-4199). It inhibits Wnt3a activities with an IC50 value around 8 nM in the Wnt reporter gene assay(see, e.g. Lujan et al., Proc Natl Acad Sci USA 2012; 109:2527-2532). Therefore, we can use the 3-step coculture protocol as described above and add Dkk2 to the culture medium at various concentrations starting at 8 nM to the Step 1 co-culture, which is the reprogramming step. Phenotypic analysis can be performed in each of the 3 steps to determine the outcome of transdifferentiation by the expression of K12 and K10 in the cultured epithelial cells. The optimal concentration of Dkk2 that achieves the highest portion of K12+ cells in Step 3 can be determined. This concentration of Dkk2 can be used. […]
molecule,measurement,setting,value
B1,IC50,[1],~8 nM
same,inhibition,[2],90%
